Assay results from patent US20240216513A1, “FATTY ACID-BIFUNCTIONAL DEGRADER CONJUGATES AND THEIR METHODS OF USE” (Novartis AG, priority 2021, published 2024).

Columns and labels:
[1] = BTK FAC plasma stability assay, mouse plasma; format: in vitro ADME
Procedure: (§1) Plasma stability was conducted in Dulbecco's PBS buffer, mouse plasma, rat plasma or human plasma frozen with K3-EDTA from BiolVT). Thawed plasma was centrifuged prior to warming for 5 minutes at 37° C. Working solutions were prepared from 10 mM DMSO solution to 500 µM in acetonitrile:water (1:1); 2 µL of working solution was added to 198 µL blank plasma or PBS and mixed manually. 4×45 µL of spiked matrix was aliquoted into glass incubation plates (96-well DW glass microplate) and sealed with blue silicon/PTFE seal; then incubated on a Thermo shaker (38° C. 300 RPM). Samples were prepared at 0, 2, 6 and 24 h timepoints, by protein precipitation with chilled acetonitrile containing internal standard Glyburide (0.2 µM). Precipitated samples were shaken for 10 minutes and stored at 4° C. until completion of the study. Following precipitation of the terminal sample, samples were frozen at −80° C. for 1 hour. Samples were then thawed prior to centrifugation (20 minutes, 4500 RPM at 4° C.). 50 µL of supernatant of each sample was transferred to 384 well analysis plate containing 30 µL of water. Semi quantitative analysis (analyte: internal standard peak area ratio) was performed by LC-MS/MS using a Sciex QTrap 5500.

[2] = BTK FAC plasma stability assay, PBS buffer arm; format: physicochemical; details: for Plasma stability (h) PBS: incubation to 24 h
Procedure: as §1

[3] = BTK FAC plasma stability assay, dog plasma; format: in vitro ADME
[4] = BTK FAC plasma stability assay, rat plasma; format: in vitro ADME
Procedure: as §1

Structure (SMILES)	% Release of degrader after 24 h mouse [1] [%]	Plasma stability (h) mouse ([1]; incubation to 24 h) [h]	% Release of degrader after 24 h PBS [2] [%]	Plasma stability (h) PBS [2] [h]	Plasma stability (h) dog [3] [h]	% Release of degrader after 24 h dog [3] [%]	% Release of degrader after 24 h rat [4] [%]	Plasma stability (h) rat ([4]; incubation to 24 h) [h]	half-life at 5 µM ([1]; incubation to 24 h) [h]	half-life at 5 µM ([3]; read-out: Plasma stability (h) dog (converted)) [h]	half-life at 5 µM ([4]; incubation to 24 h) [h]
CCCCCCCCCCCN(C(=O)CCCCCCCCCC(=O)O)C(CCC(=O)NCCOCCOCCOCCOCCOCCOCCOCCOCCOCCOCCOCCOCCC(=O)NCC(=O)NCn1c(-c2ccc(CCN3CCC4(CC3)CCN(C(=O)c3ccc(OC)c(N5CCC(=O)NC5=O)c3)CC4)cc2)cc2c(-c3cc(F)cc(NC(=O)c4ccc(C(C)(C)O)cc4F)c3C)ncnc21)C(=O)O (stereo not shown) [Example A38, 49-Carboxy-1-(6-(4-(2-(9-(3-(2,4-dioxotetrahydropyrimidin-1(2H)-yl)-4-methoxybenzoyl)-3,9-diazaspiro[5.5]undecan-3-yl)ethyl)phenyl)-4-(5-fluoro-3-(2-fluoro-4-(2-hydroxypropan-2-yl)benzamido)-2-methylphenyl)-7H-pyrrolo[2,3-d]pyrimidin-7-yl)-3,6,46,51-tetraoxo-50-undecyl-9,12,15,18,21,24,27,30,33,36,39,42-dodecaoxa-2,5,45,50-tetraazahenhexacontan-61-oic acid]	0.1	>48	0.2	>48	>48	0.1	0.1	>48	–	–	–
CCCCCCCCCCCN(C(=O)CCCCCCCCCC(=O)O)C(CCC(=O)NCCOCCOCCOCCOCCOCCOCCOCCOCCOCCOCCOCCOCCC(=O)N1CCC(F)(C(=O)OC(C)(C)c2ccc(C(=O)Nc3cc(F)cc(-c4ncnc5[nH]c(-c6ccc(CCN7CCC8(CC7)CCN(C(=O)c7ccc(OC)c(N9CCC(=O)NC9=O)c7)CC8)cc6)cc45)c3C)c(F)c2)CC1)C(=O)O (stereo not shown) [Example A15, 44-Carboxy-1-(4-(((2-(4-((3-(6-(4-(2-(9-(3-(2,4-dioxotetrahydropyrimidin-1(2H)-yl)-4-methoxybenzoyl)-3,9-diazaspiro[5.5]undecan-3-yl)ethyl)phenyl)-7H-pyrrolo[2,3-d]pyrimidin-4-yl)-5-fluoro-2-methylphenyl)carbamoyl)-3-fluorophenyl)propan-2-yl)oxy)carbonyl)-4-fluoropiperidin-1-yl)-1,41,46-trioxo-45-undecyl-4,7,10,13,16,19,22,25,28,31,34,37-dodecaoxa-40,45-diazahexapentacontan-56-oic acid]	96.9	<2	0	>48	23	22.5	39.4	30	–	–	–
CCCCCCCCCCCN(C(=O)CCCCCCCCCC(=O)O)C(CCC(=O)NCCOCCOCCOCCOCCOCCOCCOCCOCCOCCOCCOCCOCCOCCOCCOCCOCCOCCOCCOCCOCCOCCOCCOCCOCCC(=O)NCC(=O)OC(C)(C)c1ccc(C(=O)Nc2cc(F)cc(-c3ncnc4[nH]c(-c5ccc(CCN6CCC7(CC6)CCN(C(=O)c6ccc(OC)c(N8CCC(=O)NC8=O)c6)CC7)cc5)cc34)c2C)c(F)c1)C(=O)O (stereo not shown) [Example A32, 86-Carboxy-2-(4-((3-(6-(4-(2-(9-(3-(2,4-dioxotetrahydropyrimidin-1(2H)-yl)-4-methoxybenzoyl)-3,9-diazaspiro[5.5]undecan-3-yl)ethyl)phenyl)-7H-pyrrolo[2,3-d]pyrimidin-4-yl)-5-fluoro-2-methylphenyl)carbamoyl)-3-fluorophenyl)-2-methyl-4,7,83,88-tetraoxo-87-undecyl-3,10,13,16,19,22,25,28,31,34,37,40,43,46,49,52,55,58,61,64,67,70,73,76,79-pentacosaoxa-6,82,87-triazaoctanonacontan-98-oic acid]	5.8	27	1	>48	37.3	4.7	6.1	20.8	–	–	–
CCCCCCCCCCCN(C(=O)CCCCCCCCCC(=O)O)C(CCC(=O)NCCOCCOCCOCCOCCOCCOCCOCCOCCC(=O)NCC(=O)OC(C)(C)c1ccc(C(=O)Nc2cc(F)cc(-c3ncnc4[nH]c(-c5ccc(CCN6CCC7(CC6)CCN(C(=O)c6ccc(OC)c(N8CCC(=O)NC8=O)c6)CC7)cc5)cc34)c2C)c(F)c1)C(=O)O (stereo not shown) [Example A8, 38-Carboxy-2-(4-((3-(6-(4-(2-(9-(3-(2,4-dioxotetrahydropyrimidin-(2H)-yl)-4-methoxybenzoyl)-3,9-diazaspiro[5.5]undecan-3-yl)ethyl)phenyl)-7H-pyrrolo[2,3-d]pyrimidin-4-yl)-5-fluoro-2-methylphenyl)carbamoyl)-3-fluorophenyl)-2-methyl-4,7,35,40-tetraoxo-39-undecyl-3,10,13,16,19,22,25,28,31-nonaoxa-6,34,39-triazapentacontan-50-oic acid]	20.1	>48	2.8	>48	>48	13.1	18.1	>48	–	–	–
CCCCCCCCCCCN(C(=O)CCCCCCCCCC(=O)O)[C@@H](CCC(=O)N(CCNC(=O)CCOCCOCCOCCOCCOCCOCCOCCOCCOCCOCCOCCOC)CC(=O)OC(C)(C)c1ccc(C(=O)Nc2cc(F)cc(-c3ncnc4[nH]c(-c5ccc(CCN6CCC7(CC6)CCN(C(=O)c6ccc(OC)c(N8CCC(=O)NC8=O)c6)CC7)cc5)cc34)c2C)c(F)c1)C(=O)O [Example A37, (S)-46-Carboxy-42-(2-((2-(4-((3-(6-(4-(2-(9-(3-(2,4-dioxotetrahydropyrimidin-1(2H)-yl)-4-methoxybenzoyl)-3,9-diazaspiro[5.5]undecan-3-yl)ethyl)phenyl)-7H-pyrrolo[2,3-d]pyrimidin-4-yl)-5-fluoro-2-methylphenyl)carbamoyl)-3-fluorophenyl)propan-2-yl)oxy)-2-oxoethyl)-38,43,48-trioxo-47-undecyl-2,5,8,11,14,17,20,23,26,29,32,35-dodecaoxa-39,42,47-triazaoctapentacontan-58-oic acid]	2.1	–	1.7	>48	–	2.2	1.5	–	> 48	44.7	> 48
